Usually IC50 stands for the concentration that inhibits the measured activity by half.

The source of these data is patent publication US20240132578A1.

Holding throughout (assay): cell-based or functional assay
For assay [1], the target named is HIV-1 JRFL envelope glycoprotein (Env) on pseudovirus (HIV-1).
The target in assay [2] is HIV-1 Env of pseudovirus MGRM-D-028 (HIV-1).
Assay [3] deals with HIV-1 envelope glycoprotein (Env) of isolate MG RM-AG-002 (HIV-1).
Assay [4] concerns the target HIV-1 Env of isolate MGRM-D-003 (HIV-1).
Assay [5] deals with HIV-1 Env of isolate MGRM-D-002 (HIV-1).
Assay [6] addresses HIV-1 Env of isolate 92UG024 (HIV-1).
The target of assay [7] is HIV-1 Env of pseudovirus isolate 92BR020 (clade B) (HIV-1).
In assay [8] the target is HIV-1 Env of isolate MG RM-A-013 (pseudovirus) (HIV-1).
Assay [9] addresses HIV-1 Env of isolate 92TH021 (pseudovirus) (HIV-1).
Assay [10] has as its target HIV-1 Env of isolate VLGCA1 (pseudovirus) (HIV-1).
Assay [11] deals with HIV-1 Env of isolate MGRM-D-004 (HIV-1).
The target of assay [12] is HIV-1 Env of pseudovirus isolate MGRM-Chronic-B-004 (clade B) (HIV-1).

Chain of PGT-141 (4964_G22; 4993_K13) (antibody) (VH): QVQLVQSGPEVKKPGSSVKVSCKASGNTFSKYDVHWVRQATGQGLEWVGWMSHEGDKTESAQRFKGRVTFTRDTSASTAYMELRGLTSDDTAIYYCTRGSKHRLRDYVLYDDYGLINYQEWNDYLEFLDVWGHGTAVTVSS
Chain of PGT-141 (4964_G22; 4993_K13) (antibody) (VL): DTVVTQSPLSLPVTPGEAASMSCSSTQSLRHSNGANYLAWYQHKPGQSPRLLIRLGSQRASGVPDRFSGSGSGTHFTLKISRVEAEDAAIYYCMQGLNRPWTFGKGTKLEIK
Chain of 4980_N08 (PGT-143) (antibody) (VH): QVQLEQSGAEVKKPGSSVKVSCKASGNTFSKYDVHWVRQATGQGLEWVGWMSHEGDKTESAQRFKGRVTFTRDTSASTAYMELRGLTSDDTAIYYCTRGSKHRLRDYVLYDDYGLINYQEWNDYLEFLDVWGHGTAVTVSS
Chain of 4980_N08 (PGT-143) (antibody) (VL): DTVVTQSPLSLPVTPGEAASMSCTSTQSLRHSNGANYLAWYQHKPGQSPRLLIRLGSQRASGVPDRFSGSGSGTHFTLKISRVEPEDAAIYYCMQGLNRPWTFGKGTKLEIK
Chain of PGT-142 (4995_E20) (antibody) (VH): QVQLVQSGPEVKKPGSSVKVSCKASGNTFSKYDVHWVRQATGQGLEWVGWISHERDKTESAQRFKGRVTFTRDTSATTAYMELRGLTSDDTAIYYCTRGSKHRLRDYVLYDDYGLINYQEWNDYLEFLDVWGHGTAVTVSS
Chain of PGT-144 (4970_K22) (antibody) (VH): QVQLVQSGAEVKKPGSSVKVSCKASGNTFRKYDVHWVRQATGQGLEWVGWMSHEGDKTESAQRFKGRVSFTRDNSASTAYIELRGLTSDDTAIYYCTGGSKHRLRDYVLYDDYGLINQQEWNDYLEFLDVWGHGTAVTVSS
Chain of PGT-144 (4970_K22) (antibody) (VL): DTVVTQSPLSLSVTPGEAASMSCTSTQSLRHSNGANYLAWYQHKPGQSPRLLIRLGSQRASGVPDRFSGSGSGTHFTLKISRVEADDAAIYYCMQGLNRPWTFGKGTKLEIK
Chain of PGT-145 (4995_P16) (antibody) (VH): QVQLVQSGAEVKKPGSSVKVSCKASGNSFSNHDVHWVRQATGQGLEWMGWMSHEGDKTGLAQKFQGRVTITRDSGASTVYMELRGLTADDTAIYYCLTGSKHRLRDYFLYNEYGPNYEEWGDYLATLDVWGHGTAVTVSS
Chain of PGT-145 (4995_P16) (antibody) (VL): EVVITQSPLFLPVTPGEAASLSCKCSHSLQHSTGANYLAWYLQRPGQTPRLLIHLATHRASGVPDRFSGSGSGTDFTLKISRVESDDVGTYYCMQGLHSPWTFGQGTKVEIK

Regarding PGT-142 (4995_E20) (antibody), the IC50, pseudovirus neutralization in assay [1] is above 10 mg/L; in assay [2], above 50 mg/L. The IC50 in assay [3] came out at 0.044 mg/L.

Regarding VRC01 (antibody), the IC50 (µg/mL), pseudovirus neutralization came out at 2.06 µg/mL in assay [4], 0.252 µg/mL in [5], 0.576 µg/mL in [6] and 1.25 µg/mL in assay [11]. Besides, the IC50, pseudovirus neutralization in [7] is 0.29 mg/L; in assay [2], 0.377 mg/L; in assay [12] it was 0.055 mg/L. For the same substance, the IC50 (µg/mL), single-round pseudovirus neutralization was 0.152 µg/mL in assay [8], 0.616 µg/mL in [9] and 0.163 µg/mL in [10]. The same substance yielded a half-inhibitory concentration (IC50) in assay [3] of 0.95 mg/L.

Consider PGT-143 (4980_N08) (antibody), for which the IC50, pseudovirus neutralization is above 10 mg/L in assay [1] and above 50 mg/L in assay [2]. In assay [3], this substance registered an IC50 of 0.076 mg/L.

The substance PGT-145 (4995_P16) (antibody) yielded an IC50, pseudovirus neutralization in [2] of 0.721 mg/L. Also, the concentration for half-maximal inhibition (IC50) in assay [3] was found to be 0.056 mg/L.

With PGT-141 (4964_G22; 4993_K13) (antibody), the IC50, pseudovirus neutralization is above 10 mg/L in assay [1] and below 50 mg/L in assay [2]. The IC50 in [3] came out at 0.049 mg/L.

Regarding 4980_N08 (PGT-143) (antibody), the IC50 (µg/mL), pseudovirus neutralization in assay [4], in assay [5], in assay [6] and in [11] was above 50 µg/mL throughout. Moreover, the IC50, pseudovirus neutralization worked out at 25.9 mg/L in assay [7] and 0.395 mg/L in assay [12]. In addition, the figures for the IC50 (µg/mL), single-round pseudovirus neutralization in [8], in [9] and in assay [10] were 9.24 µg/mL, 0.003 µg/mL and 17.4 µg/mL, respectively.

PGT-144 (4970_K22) (antibody): the IC50, pseudovirus neutralization in [1] is above 10 mg/L; in [2] it was above 50 mg/L. Also, the IC50 in assay [3] stood at 7.78 mg/L.
